From patent US20080279844

Target: T1, IκBα, P25963
T1 chain: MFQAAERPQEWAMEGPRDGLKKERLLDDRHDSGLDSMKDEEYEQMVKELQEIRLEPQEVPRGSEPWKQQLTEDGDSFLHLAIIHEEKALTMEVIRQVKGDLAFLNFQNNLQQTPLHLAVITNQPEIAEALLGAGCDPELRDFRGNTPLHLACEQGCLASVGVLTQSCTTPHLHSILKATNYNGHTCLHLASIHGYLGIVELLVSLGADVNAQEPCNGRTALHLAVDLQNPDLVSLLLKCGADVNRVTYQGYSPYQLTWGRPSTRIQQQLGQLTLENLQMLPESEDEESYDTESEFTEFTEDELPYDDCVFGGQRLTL

B1: Tissue transglutaminase (TG2, EC 2.3.2.13) (protein)
chain: AEELVLERCDLELETNGRDHHTADLCREKLVVRRGQPFWLTLHFEGRNYEASVDSLTFSVVTGPAPSQEAGTKARFPLRDAVEEGDWTATVVDQQDCTLSLQLTTPANAPIGLYRLSLEASTGYQGSSFVLGHFILLFNAWCPADAVYLDSEEERQEYVLTQQGFIYQGSAKFIKNIPWNFGQFEDGILDICLILLDVNPKFLKNAGRDCSRRSSPVYVGRVVSGMVNCNDDQGVLLGRWDNNYGDGVSPMSWIGSVDILRRWKNHGCQRVKYGQCWVFAAVACTVLRCLGIPTRVVTNYNSAHDQNSNLLIEYFRNEFGEIQGDKSEMIWNFHCWVESWMTRPDLQPGYEGWQALDPTPQEKSEGTYCCGPVPVRAIKEGDLSTKYDAPFVFAEVNADVVDWIQQDDGSVHKSINRSLIVGLKISTKSVGRDEREDITHTYKYPEGSSEEREAFTRANHLNKLAEKEETGMAMRIRVGQSMNMGSDFDVFAHITNNTAEEYVCRLLLCARTVSYNGILGPECGTKYLLNLNLEPFSEKSVPLCILYEKYRDCLTESNLIKVRALLVEPVINSYLLAERDLYLENPEIKIRILGEPKQKRKLVAEVSLQNPLPVALEGCTFTVEGAGLTEEQKTVEIPDPVEAGEEVKVRMDLLPLHMGLHKLVVNFESDKLKAVKGFRNVIIGPA
in vitro BPA labeling of IκBα immunoprecipitates in the presence of Ca2+ (3 mM), probed with horseradish peroxidase-conjugated streptavidin: demonstrated the presence of high-molecular-weight forms (dimeric and polymeric) of IκBα
